Measured values: paper doi:10.1101/2024.10.03.616038 (bioRxiv, 2024)

Biological target: 6P stabilised SARS-CoV-2 spike protein (SARS-CoV-2, original (Wuhan) strain, UniProt P0DTC2, stabilised)
Assay: cryo-EM structure
Details: both partners purified

B1: REGN10987 Fab (Fab, V domains shown)
VH: QVQLVESGGGVVQPGRSLRLSCAASGFTFSNYAMYWVRQAPGKGLEWVAVISYDGSNKYYADSVKGRFTISRDNSKNTLYLQMNSLRTEDTAVYYCASGSDYGDYLLVYWGQGTLVTVSS
VL: QSALTQPASVSGSPGQSITISCTGTSSDVGGYNYVSWYQQHPGKAPKLMIYDVSKRPSGVSNRFSGSKSGNTASLTISGLQSEDEADYYCNSLTSISTWVFGGGTKLTVL
- binding result: binds
